From article PMC11156954 (2024)

Biological target: hMRP5-Δ1-94-8xHis (human, UniProt O15440 95-1437, RED-tris-NTA 2nd Generation dye on the His tag)
Experiment: MST

Chain of hMRP5-Δ1-94-8xHis (O15440 95-1437, stated change not applied): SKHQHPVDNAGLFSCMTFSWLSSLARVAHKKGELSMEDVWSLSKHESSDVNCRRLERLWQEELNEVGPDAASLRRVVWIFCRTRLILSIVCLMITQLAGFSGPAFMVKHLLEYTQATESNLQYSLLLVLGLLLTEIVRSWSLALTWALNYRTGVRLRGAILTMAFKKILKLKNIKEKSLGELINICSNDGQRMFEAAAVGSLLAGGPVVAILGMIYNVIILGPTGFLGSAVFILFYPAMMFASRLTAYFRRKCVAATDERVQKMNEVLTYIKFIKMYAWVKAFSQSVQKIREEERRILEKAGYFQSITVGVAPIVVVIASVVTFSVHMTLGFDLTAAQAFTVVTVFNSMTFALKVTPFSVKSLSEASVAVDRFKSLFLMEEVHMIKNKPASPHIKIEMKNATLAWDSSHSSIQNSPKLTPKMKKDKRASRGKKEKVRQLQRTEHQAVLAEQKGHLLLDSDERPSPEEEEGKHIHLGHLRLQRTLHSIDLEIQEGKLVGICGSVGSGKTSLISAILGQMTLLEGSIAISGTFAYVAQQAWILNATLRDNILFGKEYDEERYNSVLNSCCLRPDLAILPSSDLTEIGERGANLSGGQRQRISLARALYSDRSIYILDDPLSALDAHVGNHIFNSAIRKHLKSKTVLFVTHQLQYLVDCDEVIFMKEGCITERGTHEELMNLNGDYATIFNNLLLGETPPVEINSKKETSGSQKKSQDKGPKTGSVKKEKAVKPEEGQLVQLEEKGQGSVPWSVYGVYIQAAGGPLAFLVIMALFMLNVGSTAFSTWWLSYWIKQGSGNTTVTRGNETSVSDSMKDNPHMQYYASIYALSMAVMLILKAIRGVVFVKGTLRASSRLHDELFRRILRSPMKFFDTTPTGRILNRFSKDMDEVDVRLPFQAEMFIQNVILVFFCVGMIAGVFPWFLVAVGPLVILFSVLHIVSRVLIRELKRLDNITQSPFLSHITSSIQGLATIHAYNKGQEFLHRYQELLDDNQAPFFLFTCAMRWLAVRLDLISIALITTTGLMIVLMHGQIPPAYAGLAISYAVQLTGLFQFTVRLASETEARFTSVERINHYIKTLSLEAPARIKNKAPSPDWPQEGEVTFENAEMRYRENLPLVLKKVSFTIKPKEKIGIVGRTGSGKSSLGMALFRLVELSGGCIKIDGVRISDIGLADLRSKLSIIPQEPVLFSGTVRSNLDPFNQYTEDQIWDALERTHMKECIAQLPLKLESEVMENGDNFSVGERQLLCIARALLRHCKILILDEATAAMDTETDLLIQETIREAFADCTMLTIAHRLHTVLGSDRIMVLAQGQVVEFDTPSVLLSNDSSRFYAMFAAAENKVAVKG

Binder | Kd
DIGKEYIIPSPGYRSVRERTS [Asp5-Ser25 peptide of hMRP5] | 24.4 µM
DSKFRRTRPLECQDALETAARAEGLSLDASMHSQLRILDEE [Asp35-Glu75 peptide of hMRP5] | 34.6 µM

The remaining binders from weak to strong by Kd, led by results:

Kd | Binder
50.7 µM | RTRPLECQDALETAARAEGLSLDASMHSQLR [Arg40-Arg70 peptide of hMRP5]
24.1 µM | CQDALETAARAEGLSLDAS [Cys46-Ser64 peptide of hMRP5]
2.66 µM | CSKFRRTRPLECQDALETAARAEGLSLDASMHSQLRILDEC [MRP5 potential peptide inhibitor (M5PI)]
